Experimental data taken from US8367390B2, “Galactanase variants” (Novozymes A/S, priority 2002, dated 2013).
Like-named read-outs stand apart in the source and are kept apart here.

Key:
[1] = Degradation of MeGal3, products by HPAE-PAD; format: biochemical; conditions: for Gal2 in reaction products / Gal3 in reaction products / Gal in reaction products / MeGal2 in reaction products / MeGal3 in reaction products / MeGal in reaction products: MeGal3 0.25 mg/ml, pH 6.5, 37° C.
Method: (§1) The activity on the galacto-oligosaccharide substrates prepared as described above and on the commercially available galactobiose (Gal2, Megazyme) was studied for the four purified galactanases HIGAL, MTGAL, AAGAL and BLGAL. The buffers and temperatures used were: 25 mM sodium acetate, 0.5 mM CaCl2, 0.005% Triton X-100, pH 6.5 at 37° C. for HIGAL and MTGAL, 50 mM sodium acetate, 1 mM CaCl2, pH 4 at 30° C. for AAGAL and 50 mM Mes, 1 mM CaCl2, pH 6.5 at 30° C. for BLGAL. Enzyme concentrations used were 0.8 μg/ml for HIGAL, 0.2 microgram/ml for MTGAL, and 10 micrograms/ml for AAGAL and BLGAL. With HIGAL and MTGAL substrate concentrations were all 0.25 mg/ml, whereas 0.34 mg/ml Gal2, 0.050 mg/ml Gal3 and 0.067 mg/ml Gal4 were used for AAGAL and BLGAL. Enzyme activity in samples withdrawn after various incubation times was inactivated by heating to 95° C. for 10 min. Compositions of reaction products were analysed using HPAE-PAD (Dionex) applying a PA-100 column and a linear gradient of sodium acetate (0-0.18 M) in 0.15 M NaOH. Response factors of the individual carbohydrates were estimated from reference runs with MeGal3, MeGal4, Gal, Gal2, Gal3 and Gal4. Selected results are shown in Tables 2-8 below (the figures indicating weight percentage of glactooligosaccharides).

[2] = format: biochemical; conditions: for Gal2 in reaction products / Gal3 in reaction products / Gal4 in reaction products / Gal in reaction products: Gal4 0.25 mg/ml, pH 6.5, 37° C.
Method: as §1

[3] = Degradation of MeGal4, products by HPAE-PAD; format: biochemical; conditions: for Gal2 in reaction products / Gal3 in reaction products / Gal4 in reaction products / Gal in reaction products / MeGal2 in reaction products / MeGal3 in reaction products / MeGal4 in reaction products / MeGal in reaction products: MeGal4 0.25 mg/ml, pH 6.5, 37° C.
Method: as §1

[4] = Activity on galactobiose (Gal2); format: biochemical; conditions: in 24 hours; buffer, pH and temperature per enzyme
Method: as §1

[5] = Activity on galactotriose (Gal3); format: biochemical; conditions: up to 24 hours; buffer, pH and temperature per enzyme
Method: as §1

B1: MTGAL: GH Family 53 galactanase from Myceliophthora thermophila, SEQ ID NO: 1 (wild type parent) (protein, listed as Myceliophthora thermophila)
chain: ALTYRGVDWSSVVVEERAGVSYKNTNGNAQPLENILAANGVNTVRQRVWVNPADGNYNLDYNIAIAKRAKAAGLGVYIDFHYSDTWADPAHQTMPAGWPSDIDNLSWKLYNYTLDAANKLQNAGIQPTIVSIGNEIRAGLLWPTGRTENWANIARLLHSAAWGIKDSSLSPKPKIMIHLDNGWDWGTQNWWYTNVLKQGTLELSDFDMMGVSFYPFYSSSATLSALKSSLDNMAKTWNKEIAVVETNWPISCPNPRYSFPSDVKNIPFSPEGQTTFITNVANIVSSVSRGVGLFYWEPAWIHNANLGSSCADNTMFSQSGQALSSLSVFQRI
modifications: mat_peptide (1)..()
Gal2 in reaction products ([1]; incubation time 0.0 hours): 0.0 weight percentage | Gal3 in reaction products ([1]; incubation time 0.0 hours): 0.0 weight percentage | Gal in reaction products ([1]; incubation time 0.0 hours): 0.0 weight percentage | MeGal2 in reaction products ([1]; incubation time 0.0 hours): 0.0 weight percentage | MeGal3 in reaction products ([1]; incubation time 0.0 hours): 100.0 weight percentage | MeGal in reaction products ([1]; incubation time 0.0 hours): 0.0 weight percentage | Gal2 in reaction products ([1]; incubation time 0.5 hours): 0.0 weight percentage | Gal3 in reaction products ([1]; incubation time 0.5 hours): 0.0 weight percentage | Gal in reaction products ([1]; incubation time 0.5 hours): 0.0 weight percentage | MeGal2 in reaction products ([1]; incubation time 0.5 hours): 2.7 weight percentage | MeGal3 in reaction products ([1]; incubation time 0.5 hours): 87.2 weight percentage | MeGal in reaction products ([1]; incubation time 0.5 hours): 10.1 weight percentage | Gal2 in reaction products ([1]; incubation time 2.2 hours): 8.5 weight percentage | Gal3 in reaction products ([1]; incubation time 2.2 hours): 0.4 weight percentage | Gal in reaction products ([1]; incubation time 2.2 hours): 14.1 weight percentage | MeGal2 in reaction products ([1]; incubation time 2.2 hours): 1.9 weight percentage | MeGal3 in reaction products ([1]; incubation time 2.2 hours): 47.5 weight percentage | MeGal in reaction products ([1]; incubation time 2.2 hours): 27.6 weight percentage | Gal2 in reaction products ([1]; incubation time 5.0 hours): 10.9 weight percentage | Gal3 in reaction products ([1]; incubation time 5.0 hours): 15.7 weight percentage | Gal in reaction products ([1]; incubation time 5.0 hours): 2.2 weight percentage | MeGal2 in reaction products ([1]; incubation time 5.0 hours): 3.2 weight percentage | MeGal3 in reaction products ([1]; incubation time 5.0 hours): 50.6 weight percentage | MeGal in reaction products ([1]; incubation time 5.0 hours): 17.4 weight percentage | Gal2 in reaction products ([1]; incubation time 72.0 hours): 37.2 weight percentage | Gal3 in reaction products ([1]; incubation time 72.0 hours): 23.2 weight percentage | Gal in reaction products ([1]; incubation time 72.0 hours): 6.5 weight percentage | MeGal2 in reaction products ([1]; incubation time 72.0 hours): 3.5 weight percentage | MeGal3 in reaction products ([1]; incubation time 72.0 hours): 1.3 weight percentage | MeGal in reaction products ([1]; incubation time 72.0 hours): 28.3 weight percentage | Release of MeGal versus MeGal2 from MeGal3 ([1]; in words): much higher release of MeGal than MeGal2 | Products of Gal4 (galactotetraose) degradation [2]: mainly to Gal and Gal2, whereas Gal3 did not accumulate | Gal2 in reaction products ([2]; incubation time 0.0 hours): 0.0 weight percentage | Gal3 in reaction products ([2]; incubation time 0.0 hours): 42.0 weight percentage | Gal4 in reaction products ([2]; incubation time 0.0 hours): 58.0 weight percentage | Gal in reaction products ([2]; incubation time 0.0 hours): 0.0 weight percentage | Gal2 in reaction products ([2]; incubation time 0.5 hours): 9.9 weight percentage | Gal3 in reaction products ([2]; incubation time 0.5 hours): 27.7 weight percentage | Gal4 in reaction products ([2]; incubation time 0.5 hours): 50.8 weight percentage | Gal in reaction products ([2]; incubation time 0.5 hours): 11.6 weight percentage | Gal2 in reaction products ([2]; incubation time 2.2 hours): 17.4 weight percentage | Gal3 in reaction products ([2]; incubation time 2.2 hours): 45.5 weight percentage | Gal4 in reaction products ([2]; incubation time 2.2 hours): 22.3 weight percentage | Gal in reaction products ([2]; incubation time 2.2 hours): 14.9 weight percentage | Gal2 in reaction products ([2]; incubation time 5.0 hours): 29.1 weight percentage | Gal3 in reaction products ([2]; incubation time 5.0 hours): 29.5 weight percentage | Gal4 in reaction products ([2]; incubation time 5.0 hours): 12.1 weight percentage | Gal in reaction products ([2]; incubation time 5.0 hours): 29.2 weight percentage | Gal2 in reaction products ([2]; incubation time 72.0 hours): 43.5 weight percentage | Gal3 in reaction products ([2]; incubation time 72.0 hours): 1.5 weight percentage | Gal4 in reaction products ([2]; incubation time 72.0 hours): 0.0 weight percentage | Gal in reaction products ([2]; incubation time 72.0 hours): 54.9 weight percentage | Gal2 in reaction products ([3]; incubation time 0.0 hours): 0.0 weight percentage | Gal3 in reaction products ([3]; incubation time 0.0 hours): 0.0 weight percentage | Gal4 in reaction products ([3]; incubation time 0.0 hours): 0.0 weight percentage | Gal in reaction products ([3]; incubation time 0.0 hours): 0.0 weight percentage | MeGal2 in reaction products ([3]; incubation time 0.0 hours): 4.7 weight percentage | MeGal3 in reaction products ([3]; incubation time 0.0 hours): 14.8 weight percentage | MeGal4 in reaction products ([3]; incubation time 0.0 hours): 79.0 weight percentage | MeGal in reaction products ([3]; incubation time 0.0 hours): 1.6 weight percentage | Gal2 in reaction products ([3]; incubation time 0.5 hours): 3.3 weight percentage | Gal3 in reaction products ([3]; incubation time 0.5 hours): 13.7 weight percentage | Gal4 in reaction products ([3]; incubation time 0.5 hours): 2.5 weight percentage | Gal in reaction products ([3]; incubation time 0.5 hours): 0.9 weight percentage | MeGal2 in reaction products ([3]; incubation time 0.5 hours): 9.6 weight percentage | MeGal3 in reaction products ([3]; incubation time 0.5 hours): 17.1 weight percentage | MeGal4 in reaction products ([3]; incubation time 0.5 hours): 43.9 weight percentage | MeGal in reaction products ([3]; incubation time 0.5 hours): 8.9 weight percentage | Gal2 in reaction products ([3]; incubation time 2.0 hours): 10.9 weight percentage | Gal3 in reaction products ([3]; incubation time 2.0 hours): 23.9 weight percentage | Gal4 in reaction products ([3]; incubation time 2.0 hours): 3.7 weight percentage | Gal in reaction products ([3]; incubation time 2.0 hours): 4.8 weight percentage | MeGal2 in reaction products ([3]; incubation time 2.0 hours): 13.6 weight percentage | MeGal3 in reaction products ([3]; incubation time 2.0 hours): 16.0 weight percentage | MeGal4 in reaction products ([3]; incubation time 2.0 hours): 10.9 weight percentage | MeGal in reaction products ([3]; incubation time 2.0 hours): 16.2 weight percentage | Gal2 in reaction products ([3]; incubation time 5.0 hours): 20.1 weight percentage | Gal3 in reaction products ([3]; incubation time 5.0 hours): 17.9 weight percentage | Gal4 in reaction products ([3]; incubation time 5.0 hours): 2.9 weight percentage | Gal in reaction products ([3]; incubation time 5.0 hours): 12.4 weight percentage | MeGal2 in reaction products ([3]; incubation time 5.0 hours): 13.9 weight percentage | MeGal3 in reaction products ([3]; incubation time 5.0 hours): 9.9 weight percentage | MeGal4 in reaction products ([3]; incubation time 5.0 hours): 3.5 weight percentage | MeGal in reaction products ([3]; incubation time 5.0 hours): 19.3 weight percentage | Gal2 in reaction products ([3]; incubation time 24.0 hours): 32.7 weight percentage | Gal3 in reaction products ([3]; incubation time 24.0 hours): 3.4 weight percentage | Gal4 in reaction products ([3]; incubation time 24.0 hours): 1.1 weight percentage | Gal in reaction products ([3]; incubation time 24.0 hours): 24.2 weight percentage | MeGal2 in reaction products ([3]; incubation time 24.0 hours): 13.3 weight percentage | MeGal3 in reaction products ([3]; incubation time 24.0 hours): 2.3 weight percentage | MeGal4 in reaction products ([3]; incubation time 24.0 hours): 2.9 weight percentage | MeGal in reaction products ([3]; incubation time 24.0 hours): 20.1 weight percentage | Products from MeGal4 ([3]; in words, buffer, pH and temperature per enzyme): initial release mainly of MeGal, MeGal2 and Gal3 and some Gal2 but little Gal | Activity on Gal2 [4]: Neither of the enzymes HIGAL, MTGAL, AAGAL or BLGAL had any detectable activity | Activity on Gal3, products [5]: degraded Gal3 to Gal2 and Gal
